Laboratory results published in publication PMC10959496 (European journal of medicinal chemistry, 2023).

What was measured:
EphA4 [1] = molecular target: T1, EphA4 (Homo sapiens, UniProt P54764); test: ELISA measuring EphA4 activation; assay type: cell-based; settings: HEK-EphA4 cells, ratio of IC50 values
[2] = mouse, ip
EphA4 [3] = molecular target: T1, EphA4; settings: cited from earlier work

T1 sequence (P54764 20-986, species assumed): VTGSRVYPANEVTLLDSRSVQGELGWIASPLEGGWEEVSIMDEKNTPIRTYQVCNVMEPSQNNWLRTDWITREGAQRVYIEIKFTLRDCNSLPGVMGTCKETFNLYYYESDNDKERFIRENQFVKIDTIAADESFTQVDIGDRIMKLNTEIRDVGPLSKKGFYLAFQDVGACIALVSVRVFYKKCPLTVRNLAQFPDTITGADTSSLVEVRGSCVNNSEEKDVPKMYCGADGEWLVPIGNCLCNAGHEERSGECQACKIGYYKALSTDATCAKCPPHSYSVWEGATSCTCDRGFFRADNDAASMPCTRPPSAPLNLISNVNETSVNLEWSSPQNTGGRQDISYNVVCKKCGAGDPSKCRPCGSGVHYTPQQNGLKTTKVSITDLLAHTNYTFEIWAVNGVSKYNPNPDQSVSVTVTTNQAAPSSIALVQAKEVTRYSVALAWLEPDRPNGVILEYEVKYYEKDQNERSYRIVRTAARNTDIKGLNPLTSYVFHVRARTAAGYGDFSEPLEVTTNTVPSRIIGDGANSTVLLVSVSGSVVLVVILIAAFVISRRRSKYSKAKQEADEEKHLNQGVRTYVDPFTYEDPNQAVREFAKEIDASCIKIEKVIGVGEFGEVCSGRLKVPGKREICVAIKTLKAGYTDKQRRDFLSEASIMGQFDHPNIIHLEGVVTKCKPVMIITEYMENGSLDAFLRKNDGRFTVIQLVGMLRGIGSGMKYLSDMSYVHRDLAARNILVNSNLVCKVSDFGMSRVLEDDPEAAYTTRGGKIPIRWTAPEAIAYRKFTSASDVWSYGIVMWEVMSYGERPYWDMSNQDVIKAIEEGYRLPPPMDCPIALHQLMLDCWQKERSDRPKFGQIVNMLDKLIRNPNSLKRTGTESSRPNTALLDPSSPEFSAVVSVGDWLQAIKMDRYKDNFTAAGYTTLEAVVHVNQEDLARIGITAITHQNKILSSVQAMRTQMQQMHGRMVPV

Row | Substance | Potency in cells lower than that of APY-d3 (EphA4 [1]) | Blood concentration at 20 hours after injection ([2]; in vivo, 0.8 mg per mouse, 20 h) | Blood concentration at 48 hours after injection ([2]; in vivo, 0.8 mg per mouse, 48 h) [nM] | In vivo half-life after intraperitoneal injection [2] [h] | More potent than APY (EphA4 [3]) [fold]
1 | APY-d3-PEG4: APY-d3 conjugated to 30 kDa metoxy-PEG-azide through 3 amino-hexanoic acid groups and propargyl-glycine by click chemistry | ~ 4 fold | ~ 3 μM | 400 | > 10 | –
2 | APYCVYRβASWSC-NH2 (disulfide) [APY-d2] | – | – | – | – | 50
